Consider 1 molecule from patent publication US20100120678A1 (University of California, published 2010).

In the test the target is His-tagged wildtype EGFR kinase domain (human, UniProt P00533 696-1022, limits assumed). The experiment in a line: cell-based or functional assay.

B1: 25-mer peptide corresponding to residues 340-364 in Mig-6 (peptide)
peptide: SYLNGVMPPTQSFAPDPKYVSSKAL
On to B1, for which the “inhibition of activated EGFR kinase (IC50)” value was ~100 µM.
